The target in series [1] is T1, EnfR wild-type (TON_1525) (Thermococcus onnurineus NA1) (UniProt B6YTS4).
T1 sequence: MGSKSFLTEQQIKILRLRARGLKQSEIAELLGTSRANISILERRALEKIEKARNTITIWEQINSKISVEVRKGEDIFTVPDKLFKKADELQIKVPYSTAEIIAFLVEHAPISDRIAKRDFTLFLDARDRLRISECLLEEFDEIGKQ
The experiment in a line: EMSA. The note with it: EMSA: 10 mM Tris pH 7.4, 200 mM KCl, 2 mM DTT, 0.2 mM EDTA, 37 C 20 min, ITC: 10 mM Tris-HCl pH 7.4, 200 mM KCl, 1 mM TCEP, 25 C, footprint: 20 mM …. For orientation: Mobility shift assays separate free from complexed probe on a gel.

The target in series [2] is T1, EnfR wild-type (TON_1525) (Thermococcus onnurineus NA1). The experiment in a line: DNase I footprinting. The note with it: EMSA: 10 mM Tris pH 7.4, 200 mM KCl, 2 mM DTT, 0.2 mM EDTA, 37 C 20 min, ITC: 10 mM Tris-HCl pH 7.4, 200 mM KCl, 1 mM TCEP, 25 C, footprint: 20 mM ….

In the case of “AACAGGGTGTTACATACTTTTATTTTCAATTCTAAGCTTCAAAAAACTCTTTTAAAAGTGAACATCCAATTAGGTTTGGGAAATGGTAAACAAAATTGTAAAAGGGTGTTTTGAACCAAACGTGGGGTGATAGAAAGATGGCATTTAT (double strand) [P1582]”, the binding result in series [1] was “binds”. On to “GAGAGTTTTACTGTCTCTAAATGAAAGGTTCTAATACGGTGGATCGAATAATTTCTTGCGTTTTTATCCGGATCGCCGAACACGATTCCATCTTAAAATCTTTTTGTTTACATTATACGAGGTGATCAACAATGCCAGCTTTTTCCGGTT (double strand) [150-bp codh promoter probe]”, for which the binding result in series [2] was “binds”.

Values taken from PMC10570040.
